Here are results for one substance from PMC11964938.

The target of the test is purified, recombinant myristoylated HIV-1 MA protein (HIV-1 pNL4-3).

As to “HIV-1 SP2 added to MA on lipid monolayers (peptide)”, the share of sub-images that contributed to mature-like MA lattice classes on lipid monolayers in the presence of SP2 (7% mature-like and 7% immature-like without SP2; no immature-like classes with SP2) turned out to be 47%.
